Measurements from PMC5597967, “14-3-3 Regulates Actin Filament Formation in the Deep-Branching Eukaryote Giardia lamblia” (mSphere, 2017).

Biological target: the molecule itself
Experiment: native gel or EMSA; TS-actin and associated proteins purified on StrepTactin resin, eluted with 2 mM biotin, run at once on 4 to 16% native PAGE and blotted; with and without DSP cross-linking of cells before lysis; input also run

B1: Gl-14-3-3–HA (endogenously 3×HA C-terminally tagged Gl-14-3-3) (natural protein, Giardia lamblia, UniProt E2RU97 1-248, looked up)
chain: MAEAFTREDYVFMAQLNENAERYDEMVETMRKISGMEGELSDKERNLLSVAYKNVIGPRRAAWRIVSSIEAKEKGRQKPNAKRIEQIRVYRQKIEKELSDICNDILKLLQEQFVPRSTNADAKVFYYKMQGDYYRYLAEYSSGEDKEKIAGSALNAYNSAFEISQQLPPTHPIRLGLALNFSVFYYEILASPDRACELARKAFDAAITDLDKLTEESYKDSTLIMQLLRDNLNLWVTDSAGDDNAEEK
notes: Giardia lamblia 14-3-3 (Gl-14-3-3), the single 14-3-3 homolog, GL50803_6430; source: Giardia trophozoites, endogenously tagged (integrated copy), in lysate; not shown: 3xHA, C-terminal, kept
- stoichiometry N: 2
